Results from patent publication US20240301041A1 (Regeneron, published 2024).

Experiments:
[1] = target: T1, Protein A on the surface of S. aureus Newman wild-type (Staphylococcus aureus (strain Newman), UniProt P38507 37-477); assay: cell-based or functional assay
[2] = target: T2, IgG binding protein (Protein A homolog SpsQ/SpsP) on S. intermedius 27369 (Staphylococcus intermedius); assay: cell-based or functional assay
[3] = target: IgG binding protein (Protein A homolog SpsQ/SpsP) on S. pseudintermedius AHDRCC 98200 (Staphylococcus pseudintermedius); assay: cell-based or functional assay
[4] = target: T1, Protein A on the surface of S. aureus …; assay: ELISA on plate-coated S. aureus Newman WT
[5] = target: T1, Protein A on the surface of S. aureus …; assay: ELISA, coated S. aureus Newman, antibody 1.18E-12 M
[6] = target: T1, Protein A on the surface of S. aureus …; assay: ELISA, coated S. aureus Newman, antibody 1.47E-13 M
[7] = target: T1, Protein A on the surface of S. aureus …; assay: ELISA, coated S. aureus Newman, antibody 4.82E-09 M
[8] = target: T1, Protein A on the surface of S. aureus …; assay: ELISA, coated S. aureus Newman, antibody 6.03E-10 M
[9] = target: T1, Protein A on the surface of S. aureus …; assay: ELISA, coated S. aureus Newman, antibody 7.54E-11 M
[10] = target: T2, IgG binding protein (Protein A homolog …); assay: ELISA, coated S. intermedius 27369, antibody 1.18E-12 M
[11] = target: T2, IgG binding protein (Protein A homolog …); assay: ELISA, coated S. intermedius 27369, antibody 3.86E-08 M
[12] = target: T2, IgG binding protein (Protein A homolog …); assay: ELISA, coated S. intermedius 27369, antibody 4.82E-09 M
[13] = target: T2, IgG binding protein (Protein A homolog …); assay: ELISA, coated S. intermedius 27369, antibody 7.54E-11 M
[14] = target: T1, Protein A on the surface of S. aureus …; assay: ELISA on plate-coated S. aureus Newman WT (grown in TSB)
[15] = target: T3, IgG binding protein (Protein A homolog SpsQ/SpsP) on MRSP S. pseudintermedius 88493 (Staphylococcus pseudintermedius); assay: ELISA, coated S. pseudintermedius 88493, antibody 1.18E-12 M
T3 construct: whole, on cells; also called MRSP Staphylococcus pseudintermedius 88493 (methicillin-resistant)

[16] = target: T3, IgG binding protein (Protein A homolog …); assay: ELISA, coated S. pseudintermedius 88493, antibody 1.47E-13 M
[17] = target: T3, IgG binding protein (Protein A homolog …); assay: ELISA, coated S. pseudintermedius 88493, antibody 3.09E-07 M
[18] = target: T3, IgG binding protein (Protein A homolog …); assay: ELISA, coated S. pseudintermedius 88493, antibody 4.82E-09 M
[19] = target: T3, IgG binding protein (Protein A homolog …); assay: ELISA, coated S. pseudintermedius 88493, antibody 6.03E-10 M
[20] = target: T3, IgG binding protein (Protein A homolog …); assay: ELISA, coated S. pseudintermedius 88493, antibody 7.54E-11 M
[21] = target: T3, IgG binding protein (Protein A homolog …); assay: ELISA, coated S. pseudintermedius 88493, antibody 9.42E-12 M
[22] = target: T4, Protein A (purified reagent) (Staphylococcus aureus, UniProt P38507 37-477); assay: SPR (Biacore), mAb captured by anti-human Fc, Protein A injected, 25 C
T4 construct: also called Protein A (Calbiochem, 539202-5 MG); Protein A reagent

[23] = target: T1, Protein A on the surface of S. aureus …; assay: flow cytometry; blocking antibody 1 ug/mL, then Alexa-488 VH3 hIgG1*/* antibody (competitor) on wild-type S. aureus
[24] = target: T1, Protein A on the surface of S. aureus …; assay: flow cytometry; blocking antibody 10 ug/mL, then Alexa-488 VH3 hIgG1*/* antibody (competitor) on wild-type S. aureus

B1: H1xH15140P*/* (anti-Protein A) (antibody, V domains shown)
VH: EVQLVESGGGLVQPGGSLTLSCTASGFSFSSYVMSWVRQSPGKGLEWVSAIGGSGTSTYYRDSVKGRFTISRDNSKNTLNLQMSSLRAEDTAVYYCARDGLGHRDYWGQGTLVTVSS
VL: DIQMTQSPSSVSASVGDRVTITCRASQGINSWLAWYQQKPGKAPKLLIYAASSLQSGVPSRFSGSGSGTDFTLTISSLQPEDFATYYCQQANSFPFTFGPGTKVDIK
notes: also called anti-Protein A hIgG1*/*; H1xH15140P*/*-L1
median cfu/mL after 16 h in 50% normal human serum, mAb 10 ug/mL [1]: 4.3e+06 cfu/mL
median cfu/mL after 16 h in 50% normal human serum, mAb 30 ug/mL [1]: 1e+06 cfu/mL
median cfu/mL after 16 h in 50% normal human serum, mAb 90 ug/mL [1]: 600000 cfu/mL
median cfu/mL after 16 h in 50% normal human serum, mAb 270 ug/mL [1]: 180000 cfu/mL
median cfu/mL after 16 h in 50% normal human serum, mAb 10 ug/mL [2]: 6e+06 cfu/mL
median cfu/mL after 16 h in 50% normal human serum, mAb 30 ug/mL [2]: 8.3e+06 cfu/mL
median cfu/mL after 16 h in 50% normal human serum, mAb 90 ug/mL [2]: 8.5e+06 cfu/mL
median cfu/mL after 16 h in 50% normal human serum, mAb 270 ug/mL [2]: 3.8e+06 cfu/mL
median cfu/mL after 16 h in 50% normal human serum, mAb 10 ug/mL [3]: 7.3e+06 cfu/mL
median cfu/mL after 16 h in 50% normal human serum, mAb 30 ug/mL [3]: 6.8e+06 cfu/mL
median cfu/mL after 16 h in 50% normal human serum, mAb 90 ug/mL [3]: 6.8e+06 cfu/mL
median cfu/mL after 16 h in 50% normal human serum, mAb 270 ug/mL [3]: 4.5e+06 cfu/mL
EC50 [4]: 0.0154 nM
ELISA luminescent signal [5]: 28400
ELISA luminescent signal [6]: 22000
ELISA luminescent signal [7]: 828000
ELISA luminescent signal [8]: 647000
ELISA luminescent signal [9]: 238000
ELISA luminescent signal [10]: 2460
ELISA luminescent signal [11]: 8310
ELISA luminescent signal [12]: 3030
ELISA luminescent signal [13]: 2660
EC50 [14]: 0.0906 nM
ELISA luminescent signal [15]: 5990
ELISA luminescent signal [16]: 3470
ELISA luminescent signal [17]: 10700
ELISA luminescent signal [18]: 5970
ELISA luminescent signal [19]: 10000
ELISA luminescent signal [20]: 5410
ELISA luminescent signal [21]: 4270
Kd [22]: 0.204 nM
koff [22]: 7.78e-05 s⁻¹
kon [22]: 381000 M⁻¹ s⁻¹
t½ [22]: 149 min
VH3 antibody: S. aureus blocking activity (%) [23]: 84.5%
VH3 antibody: S. aureus blocking activity (%) [24]: 84.7%
